Among the data in patent US20230310629A1 (Merck KGaA, published 2023) are Kd values, retold here.

The test addresses T1, MUC1 on WISH cells (human, UniProt P15941 24-1255).
T1 construct: whole, on cells; WISH cells also carry low levels of EGFR; also called MUC1-expressing cells (WISH)
Put plainly: cell binding on WISH cells.

B1: 1993-H02 with an HT186-D11 light chain (anti-MUC1 antibody H02) (antibody, V domains shown)
VH: QMQLVQSEAELKKPGASVKVSCKASGYSFTSHFMHWVRQAPGQGLEWMGWIDPVTGGTKYAQNFQGWVTMTRDTSIRTAYLELSRLRSDDTAMYYCAREARADRGQFDKWGQGTLVTVAS
VL: QSVLTQPPSVSVAPGKTARITCGGNNIGSKSVHWYQQKPGQAPALVIYYGSNRPSGIPERFSGSNSGNTATLTISRVEAGDEADYYCQVWDSSSDWVFGGGTKLTVL
notes: One molecule is used here for both experiments
Regarding B1, binding was characterised by a dissociation constant (Kd) of 23.9 nM.

The Kd is the concentration at which binding is half-saturated. Low values mean tighter binding, high ones weaker binding.
